From patent publication US20150064134A1

Tests used:
Test in all cases: cell-based or functional assay
[1] = biological target: cKit(V560G)(h) (human) (UniProt P10721)
[2] = biological target: Fgr(h) (human) (UniProt P09769)
[3] = biological target: T1, Bmx(h) (human) (UniProt P51813)
T1 sequence (looked up): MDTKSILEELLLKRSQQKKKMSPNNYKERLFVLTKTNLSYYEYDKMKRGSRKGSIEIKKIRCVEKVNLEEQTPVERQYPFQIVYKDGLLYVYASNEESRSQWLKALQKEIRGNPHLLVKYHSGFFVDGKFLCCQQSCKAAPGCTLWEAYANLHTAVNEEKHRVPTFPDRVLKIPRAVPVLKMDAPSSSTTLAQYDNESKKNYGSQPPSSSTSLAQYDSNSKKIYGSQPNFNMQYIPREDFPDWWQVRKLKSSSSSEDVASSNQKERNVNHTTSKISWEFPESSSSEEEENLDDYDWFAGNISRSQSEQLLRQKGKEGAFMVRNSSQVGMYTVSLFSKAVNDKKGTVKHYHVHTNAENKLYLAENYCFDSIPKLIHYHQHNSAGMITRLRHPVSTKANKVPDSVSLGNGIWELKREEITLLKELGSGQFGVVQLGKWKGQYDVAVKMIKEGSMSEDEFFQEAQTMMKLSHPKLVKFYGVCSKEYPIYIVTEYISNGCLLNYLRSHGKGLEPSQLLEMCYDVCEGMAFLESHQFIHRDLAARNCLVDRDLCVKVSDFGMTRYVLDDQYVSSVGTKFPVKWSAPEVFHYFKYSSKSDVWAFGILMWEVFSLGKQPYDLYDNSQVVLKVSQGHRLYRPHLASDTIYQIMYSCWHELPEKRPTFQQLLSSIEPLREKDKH

[4] = biological target: MAPK1(h) (human) (UniProt P28482)
MAPK1(h) (human), sequence (P28482 whole entry): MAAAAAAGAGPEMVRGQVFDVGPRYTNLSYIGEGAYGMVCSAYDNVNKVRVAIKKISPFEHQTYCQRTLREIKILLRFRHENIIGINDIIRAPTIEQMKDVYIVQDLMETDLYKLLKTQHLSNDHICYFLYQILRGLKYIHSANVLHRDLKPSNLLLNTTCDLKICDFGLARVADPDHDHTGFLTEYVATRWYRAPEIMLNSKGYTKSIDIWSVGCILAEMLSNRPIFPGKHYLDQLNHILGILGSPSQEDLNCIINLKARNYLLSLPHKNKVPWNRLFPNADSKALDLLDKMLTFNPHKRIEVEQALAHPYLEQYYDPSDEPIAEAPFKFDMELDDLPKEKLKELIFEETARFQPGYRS

[5] = biological target: Tie2(R849W)(h) (human) (UniProt Q02763)
Tie2(R849W)(h) (human), sequence (Q02763 771-1124 R849W limits assumed): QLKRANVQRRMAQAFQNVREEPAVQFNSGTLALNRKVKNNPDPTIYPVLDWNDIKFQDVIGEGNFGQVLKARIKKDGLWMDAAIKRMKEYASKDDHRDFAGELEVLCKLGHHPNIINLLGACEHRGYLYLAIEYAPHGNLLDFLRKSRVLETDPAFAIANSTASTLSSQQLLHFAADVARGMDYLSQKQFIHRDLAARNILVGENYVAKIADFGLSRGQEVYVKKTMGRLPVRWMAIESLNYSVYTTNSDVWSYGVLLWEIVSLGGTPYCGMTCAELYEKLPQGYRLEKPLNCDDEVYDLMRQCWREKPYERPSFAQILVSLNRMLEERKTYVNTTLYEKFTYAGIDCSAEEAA

[6] = biological target: PKCη(h) (human) (UniProt P24723)
[7] = biological target: CK2α2(h) (human) (UniProt P19784)
[8] = biological target: GRK5(h) (human) (UniProt P34947)
[9] = biological target: PDGFRα(D842V)(h) (human) (UniProt P16234)
PDGFRα(D842V)(h) (human), sequence (P16234 550-1089 D842V limits assumed): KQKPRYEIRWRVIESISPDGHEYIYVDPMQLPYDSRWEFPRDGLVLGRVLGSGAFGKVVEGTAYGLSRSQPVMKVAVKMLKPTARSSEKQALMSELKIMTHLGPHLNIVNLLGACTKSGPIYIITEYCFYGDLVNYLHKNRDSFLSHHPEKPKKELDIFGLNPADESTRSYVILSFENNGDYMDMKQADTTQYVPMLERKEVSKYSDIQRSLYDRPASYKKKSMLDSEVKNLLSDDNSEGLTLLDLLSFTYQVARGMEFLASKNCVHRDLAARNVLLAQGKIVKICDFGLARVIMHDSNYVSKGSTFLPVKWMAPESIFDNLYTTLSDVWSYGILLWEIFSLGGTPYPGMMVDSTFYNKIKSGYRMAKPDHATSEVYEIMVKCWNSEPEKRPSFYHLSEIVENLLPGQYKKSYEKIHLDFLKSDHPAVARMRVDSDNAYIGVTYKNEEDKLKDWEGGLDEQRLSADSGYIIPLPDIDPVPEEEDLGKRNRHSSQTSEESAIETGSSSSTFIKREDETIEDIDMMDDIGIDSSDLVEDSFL

[10] = biological target: MRCKα(h) (human) (UniProt Q5VT25)
[11] = biological target: IGF-1R(h) (human) (UniProt P08069)
IGF-1R(h) (human), sequence (P08069 959-1367 limits assumed): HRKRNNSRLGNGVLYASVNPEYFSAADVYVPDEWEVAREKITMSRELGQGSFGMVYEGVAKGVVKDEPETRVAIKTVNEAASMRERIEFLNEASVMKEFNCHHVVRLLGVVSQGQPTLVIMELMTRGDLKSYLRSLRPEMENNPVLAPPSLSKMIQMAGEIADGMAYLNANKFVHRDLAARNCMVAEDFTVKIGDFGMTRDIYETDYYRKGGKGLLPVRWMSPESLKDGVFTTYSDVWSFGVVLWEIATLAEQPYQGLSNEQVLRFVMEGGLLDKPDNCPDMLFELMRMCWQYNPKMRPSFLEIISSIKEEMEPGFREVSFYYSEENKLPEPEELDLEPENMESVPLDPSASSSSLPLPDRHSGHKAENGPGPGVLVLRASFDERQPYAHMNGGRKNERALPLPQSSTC

[12] = biological target: PAK6(h) (human) (UniProt Q9NQU5)
[13] = biological target: JAK2(h) (human) (UniProt O60674)
[14] = biological target: c-RAF(h) (human) (UniProt P04049)
[15] = biological target: Abl(T315I)(h) (human) (UniProt P00519)
Abl(T315I)(h) (human), sequence (P00519 27-1130 T315I limits assumed): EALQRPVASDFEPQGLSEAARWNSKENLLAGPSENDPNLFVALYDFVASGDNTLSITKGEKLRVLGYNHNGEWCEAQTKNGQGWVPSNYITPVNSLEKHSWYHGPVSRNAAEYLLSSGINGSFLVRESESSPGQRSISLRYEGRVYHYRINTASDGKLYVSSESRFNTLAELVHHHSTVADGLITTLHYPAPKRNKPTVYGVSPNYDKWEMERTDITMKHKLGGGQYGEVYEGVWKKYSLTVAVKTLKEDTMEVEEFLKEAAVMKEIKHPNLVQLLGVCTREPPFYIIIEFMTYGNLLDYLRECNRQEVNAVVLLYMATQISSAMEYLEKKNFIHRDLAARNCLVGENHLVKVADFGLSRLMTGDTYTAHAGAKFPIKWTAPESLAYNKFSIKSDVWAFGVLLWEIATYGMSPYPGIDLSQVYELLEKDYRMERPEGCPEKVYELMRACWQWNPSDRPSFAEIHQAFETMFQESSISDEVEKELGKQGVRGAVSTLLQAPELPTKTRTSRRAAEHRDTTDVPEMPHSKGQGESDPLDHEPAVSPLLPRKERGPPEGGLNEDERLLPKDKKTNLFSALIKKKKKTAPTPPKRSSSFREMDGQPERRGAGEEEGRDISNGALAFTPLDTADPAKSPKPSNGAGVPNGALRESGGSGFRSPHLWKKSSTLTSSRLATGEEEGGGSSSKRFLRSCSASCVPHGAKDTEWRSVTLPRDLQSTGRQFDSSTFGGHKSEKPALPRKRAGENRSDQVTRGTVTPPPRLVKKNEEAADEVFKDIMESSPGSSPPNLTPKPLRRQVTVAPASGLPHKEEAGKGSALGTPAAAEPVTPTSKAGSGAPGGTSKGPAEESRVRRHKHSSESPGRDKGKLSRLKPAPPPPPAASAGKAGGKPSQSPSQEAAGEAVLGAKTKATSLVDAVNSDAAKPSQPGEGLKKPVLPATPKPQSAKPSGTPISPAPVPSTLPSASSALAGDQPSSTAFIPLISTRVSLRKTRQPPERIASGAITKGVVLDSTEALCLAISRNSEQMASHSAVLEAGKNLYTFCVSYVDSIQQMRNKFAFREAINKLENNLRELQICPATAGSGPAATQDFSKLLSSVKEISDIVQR

[16] = biological target: PAR-1Bα(h) (human) (UniProt Q7KZI7)
[17] = biological target: EGFR(T790M)(h) (human) (UniProt P00533)
[18] = biological target: Abl(M351T)(h) (human) (UniProt P00519)
Abl(M351T)(h) (human), sequence (P00519 27-1130 M351T limits assumed): as the sequence (P00519 27-1130 T315I limits assumed) above, with I289T, M325T counted along it

[19] = biological target: CK1γ3(h) (human) (UniProt Q9Y6M4)
[20] = biological target: PAK3(h) (human) (UniProt O75914)
PAK3(h) (human), sequence (O75914 other isoform, or with tags, fused parts or gaps limits assumed): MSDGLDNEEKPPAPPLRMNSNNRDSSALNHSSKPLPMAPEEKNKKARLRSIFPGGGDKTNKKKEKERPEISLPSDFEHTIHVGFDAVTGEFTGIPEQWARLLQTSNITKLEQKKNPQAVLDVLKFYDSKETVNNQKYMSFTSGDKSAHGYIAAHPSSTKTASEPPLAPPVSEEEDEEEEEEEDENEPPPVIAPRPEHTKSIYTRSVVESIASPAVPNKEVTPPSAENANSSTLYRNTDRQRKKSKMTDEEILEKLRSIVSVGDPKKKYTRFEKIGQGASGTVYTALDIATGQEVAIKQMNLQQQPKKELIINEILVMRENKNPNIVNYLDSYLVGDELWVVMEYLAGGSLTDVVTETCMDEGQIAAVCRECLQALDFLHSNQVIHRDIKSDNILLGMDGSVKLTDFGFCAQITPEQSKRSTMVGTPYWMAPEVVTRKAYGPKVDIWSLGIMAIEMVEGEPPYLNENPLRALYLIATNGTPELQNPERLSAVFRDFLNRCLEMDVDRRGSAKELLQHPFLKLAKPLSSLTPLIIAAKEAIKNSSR

[21] = biological target: CK1γ2(h) (human) (UniProt P78368)

cKit(V560G)(h) (human), sequence (P10721 544-976 V560G): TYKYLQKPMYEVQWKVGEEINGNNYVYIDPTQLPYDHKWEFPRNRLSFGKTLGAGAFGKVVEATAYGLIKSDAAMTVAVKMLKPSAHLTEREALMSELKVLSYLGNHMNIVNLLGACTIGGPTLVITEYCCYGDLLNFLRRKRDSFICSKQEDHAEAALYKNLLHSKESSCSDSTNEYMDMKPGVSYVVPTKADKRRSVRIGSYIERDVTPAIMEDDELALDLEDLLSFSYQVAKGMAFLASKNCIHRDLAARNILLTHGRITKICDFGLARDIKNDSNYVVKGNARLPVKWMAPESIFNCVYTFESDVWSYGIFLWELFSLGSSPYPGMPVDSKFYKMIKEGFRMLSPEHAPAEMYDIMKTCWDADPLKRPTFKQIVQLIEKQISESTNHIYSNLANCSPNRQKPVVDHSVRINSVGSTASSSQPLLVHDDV

| % activity at 100 µM [1] | % activity at 100 µM [2] | % activity at 100 µM [3] | % activity at 100 µM [6] | % activity at 100 µM [9] | % activity at 100 µM [10] | % activity at 100 µM [13] | % activity at 100 µM [15] | % activity at 100 µM [17] | % activity at 100 µM [18] | Substance | also measured |
| --- | --- | --- | --- | --- | --- | --- | --- | --- | --- | --- | --- |
| 124% | 47% | 26% | 98% | 118% | 97% | – | – | – | – | MMI-0400 (peptide) | % activity at 100 µM [4]: 100%; % activity at 100 µM [5]: 108%; % activity at 100 µM [7]: 96%; % activity at 100 µM [8]: 131%; % activity at 100 µM [11]: 90%; % activity at 100 µM [12]: 100% |
| 198% | – | 45% | 45% | 170% | 5% | 49% | 16% | 70% | 61% | MMI-0500 (peptide) | % activity at 100 µM [14]: 19%; % activity at 100 µM [16]: 97% |
| – | 60% | – | – | – | – | 133% | 97% | 100% | 90% | MMI-0300 (peptide) | % activity at 100 µM [19]: 125%; % activity at 100 µM [20]: 140%; % activity at 100 µM [21]: 123% |
